From patent publication US12467929
Values belong to the substance of their own block, whether it stands above or below them.

Assays:
[1] = biological target: recombinant UBE3A protein (Homo sapiens (Human)) (UniProt Q05086); test: Simoa; capture GTX; SBG 75 pm; UBE3A 0.800 ng/ml
[2] = biological target: recombinant UBE3A protein (Homo sapiens (Human)) (UniProt Q05086); test: Simoa; capture GTX; SBG 100 pm; UBE3A 0.00640 ng/ml
[3] = biological target: recombinant UBE3A protein (Homo sapiens (Human)) (UniProt Q05086); test: Simoa; capture GTX; 3E5 0.4 ug/ml; UBE3A 0.160 ng/ml
[4] = biological target: recombinant UBE3A protein (Homo sapiens (Human)) (UniProt Q05086); test: Simoa; capture GTX; 3E5 0.8 ug/ml; UBE3A 0.0320 ng/ml
[5] = biological target: recombinant UBE3A protein (Homo sapiens (Human)) (UniProt Q05086); test: Simoa; capture GTX; 3E5 0.8 ug/ml; UBE3A 0.00128 ng/ml
[6] = biological target: recombinant UBE3A protein (Homo sapiens (Human)) (UniProt Q05086); test: Simoa head-to-head, Table 10; capture GTX; UBE3A 100 ng/ml
[7] = biological target: recombinant UBE3A protein (Homo sapiens (Human)) (UniProt Q05086); test: Simoa head-to-head, Table 10; capture GTX; UBE3A 500 ng/ml
[8] = biological target: recombinant UBE3A protein (Homo sapiens (Human)) (UniProt Q05086); test: Simoa head-to-head, Table 10; capture GTX; UBE3A 0.16 ng/ml
[9] = biological target: recombinant UBE3A protein (Homo sapiens (Human)) (UniProt Q05086); test: Simoa head-to-head, Table 10; capture GTX; UBE3A 0.80 ng/ml
[10] = biological target: recombinant UBE3A protein (Homo sapiens (Human)) (UniProt Q05086); test: Simoa head-to-head, Table 10; capture GTX; UBE3A 20.0 ng/ml
[11] = biological target: recombinant UBE3A protein (Homo sapiens (Human)) (UniProt Q05086); test: Simoa head-to-head, Table 10; capture GTX; UBE3A 4.00 ng/ml
[12] = biological target: recombinant UBE3A protein (Homo sapiens (Human)) (UniProt Q05086); test: Simoa head-to-head, Table 10; capture GTX; UBE3A 0.032 ng/ml
[13] = biological target: recombinant UBE3A protein (Homo sapiens (Human)) (UniProt Q05086); test: 2-step Simoa; capture GTX; UBE3A 0.1 ng/ml
[14] = biological target: recombinant UBE3A protein (Homo sapiens (Human)) (UniProt Q05086); test: 3-step Simoa; capture MS 3E5; UBE3A 1 ng/ml
[15] = biological target: recombinant UBE3A protein (Homo sapiens (Human)) (UniProt Q05086); test: 2-step Simoa; capture MS 3E5; UBE3A 1 ng/ml
[16] = biological target: recombinant UBE3A protein (Homo sapiens (Human)) (UniProt Q05086); test: 3-step Simoa; capture MS 3E5; UBE3A 10 ng/ml
[17] = biological target: recombinant UBE3A protein (Homo sapiens (Human)) (UniProt Q05086); test: 3-step Simoa; capture MS 3E5; UBE3A 0.1 ng/ml
[18] = biological target: recombinant UBE3A protein (Homo sapiens (Human)) (UniProt Q05086); test: 2-step Simoa; capture MS 3E5; UBE3A 0.1 ng/ml
[19] = biological target: recombinant UBE3A protein (Homo sapiens (Human)) (UniProt Q05086); test: 3-step Simoa; capture MS 2F6; UBE3A 0.01 ng/ml
[20] = biological target: recombinant UBE3A protein (Homo sapiens (Human)) (UniProt Q05086); test: 3-step Simoa; capture MS 3E5; UBE3A 0.01 ng/ml
[21] = biological target: recombinant UBE3A protein (Homo sapiens (Human)) (UniProt Q05086); test: 2-step Simoa; capture MS 3E5; UBE3A 0.01 ng/ml

Sequence of UniProt Q05086 (Q05086 whole entry): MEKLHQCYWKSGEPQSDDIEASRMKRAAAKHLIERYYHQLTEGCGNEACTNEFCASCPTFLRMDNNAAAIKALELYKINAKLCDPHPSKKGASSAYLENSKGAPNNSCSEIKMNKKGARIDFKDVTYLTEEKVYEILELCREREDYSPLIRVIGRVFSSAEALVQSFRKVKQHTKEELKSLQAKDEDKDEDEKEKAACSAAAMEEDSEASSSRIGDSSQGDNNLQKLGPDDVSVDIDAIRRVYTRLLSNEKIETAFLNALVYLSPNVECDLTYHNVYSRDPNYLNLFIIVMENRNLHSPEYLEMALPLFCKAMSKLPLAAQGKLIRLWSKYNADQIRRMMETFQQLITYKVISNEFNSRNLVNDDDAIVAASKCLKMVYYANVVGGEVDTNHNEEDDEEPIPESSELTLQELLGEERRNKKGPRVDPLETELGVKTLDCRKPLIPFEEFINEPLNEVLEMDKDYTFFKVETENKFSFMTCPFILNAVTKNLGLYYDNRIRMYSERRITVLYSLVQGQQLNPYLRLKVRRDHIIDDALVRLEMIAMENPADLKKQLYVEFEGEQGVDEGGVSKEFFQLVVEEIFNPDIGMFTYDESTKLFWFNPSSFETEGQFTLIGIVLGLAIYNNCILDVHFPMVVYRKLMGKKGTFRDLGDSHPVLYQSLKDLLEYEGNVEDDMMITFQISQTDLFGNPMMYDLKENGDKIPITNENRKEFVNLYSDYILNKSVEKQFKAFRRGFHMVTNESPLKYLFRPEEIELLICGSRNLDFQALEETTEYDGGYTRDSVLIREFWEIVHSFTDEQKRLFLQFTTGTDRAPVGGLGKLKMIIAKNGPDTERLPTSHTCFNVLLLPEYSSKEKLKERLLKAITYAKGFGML

AEB1 [1]: 0.078
AEB2 [1]: 0.115
AEB3 [1]: 0.126
Average AEB [1]: 0.106
Signal to Background [1]: 24.3
AEB1 [2]: 0.0098
AEB2 [2]: 0.0098
AEB3 [2]: 0.0111
Average AEB [2]: 0.0103
Signal to Background [2]: 1.22
AEB1 [3]: 0.172
AEB2 [3]: 0.165
AEB3 [3]: 0.174
Average AEB [3]: 0.171
Signal to Background [3]: 2.72
AEB1 [4]: 0.144
AEB2 [4]: 0.138
AEB3 [4]: 0.152
Average AEB [4]: 0.145
Signal to Background [4]: 1.18
AEB1 [5]: 0.109
AEB2 [5]: 0.109
AEB3 [5]: 0.112
Average AEB [5]: 0.11
Signal to Background [5]: 0.897
AEB1 [6]: 4.3
AEB2 [6]: 4.08
Ave AEB [6]: 4.19
Signal to Background [6]: 184
AEB1 [7]: 12.3
AEB2 [7]: 11.6
Ave AEB [7]: 11.9
Signal to Background [7]: 526
AEB1 [8]: 0.0558
AEB2 [8]: 0.0571
Ave AEB [8]: 0.0564
Signal to Background [8]: 2.48
AEB1 [9]: 0.144
AEB2 [9]: 0.14
Ave AEB [9]: 0.142
Signal to Background [9]: 6.24
AEB1 [10]: 2.26
AEB2 [10]: 2.45
Ave AEB [10]: 2.35
Signal to Background [10]: 104
AEB1 [11]: 0.361
AEB2 [11]: 0.362
Ave AEB [11]: 0.361
Signal to Background [11]: 15.9
AEB1 [12]: 0.031
AEB2 [12]: 0.0329
Ave AEB [12]: 0.0319
Signal to Background [12]: 1.41
Substance: anti-UBE3A antibody 3E5 (SAB1404508-100 ug, Millipore-Sigma)

AEB1 [13]: 0.0525
AEB2 [13]: 0.0487
Ave AEB [13]: 0.0506
Signal to Background [13]: 1
AEB1 [14]: 0.0655
AEB2 [14]: 0.0625
Ave AEB [14]: 0.064
Signal to Background [14]: 1.19
AEB1 [15]: 0.159
AEB2 [15]: 0.165
Ave AEB [15]: 0.162
Signal to Background [15]: 1.15
AEB1 [16]: 0.151
AEB2 [16]: 0.145
Ave AEB [16]: 0.148
Signal to Background [16]: 2.77
AEB1 [17]: 0.0546
AEB2 [17]: 0.06
Ave AEB [17]: 0.0573
Signal to Background [17]: 1.07
AEB1 [18]: 0.161
AEB2 [18]: 0.149
Ave AEB [18]: 0.155
Signal to Background [18]: 1.1
AEB1 [19]: 0.0162
AEB2 [19]: 0.0191
Ave AEB [19]: 0.0176
Signal to Background [19]: 0.94
AEB1 [20]: 0.0515
AEB2 [20]: 0.05
Ave AEB [20]: 0.0508
Signal to Background [20]: 0.946
AEB1 [21]: 0.129
AEB2 [21]: 0.134
Ave AEB [21]: 0.132
Signal to Background [21]: 0.931
Substance: GTX101092 (GeneTex) (antibody)

AEB1 [13]: 0.0089
AEB2 [13]: 0.0108
Ave AEB [13]: 0.0098
Signal to Background [13]: 1.33
AEB1 [14]: 0.004
AEB2 [14]: 0.0047
Ave AEB [14]: 0.0044
Signal to Background [14]: 1.31
AEB1 [15]: 0.0227
AEB2 [15]: 0.0226
Ave AEB [15]: 0.0226
Signal to Background [15]: 3.04
AEB1 [16]: 0.0157
AEB2 [16]: 0.0129
Ave AEB [16]: 0.0143
Signal to Background [16]: 4.29
AEB1 [17]: 0.0026
AEB2 [17]: 0.0025
Ave AEB [17]: 0.0025
Signal to Background [17]: 0.765
AEB1 [18]: 0.009
AEB2 [18]: 0.0091
Ave AEB [18]: 0.009
Signal to Background [18]: 1.21
AEB1 [19]: 0.0086
AEB2 [19]: 0.0101
Ave AEB [19]: 0.0093
Signal to Background [19]: 1.07
AEB1 [20]: 0.0038
AEB2 [20]: 0.0032
Ave AEB [20]: 0.0035
Signal to Background [20]: 1.05
AEB1 [21]: 0.0065
AEB2 [21]: 0.007
Ave AEB [21]: 0.0068
Signal to Background [21]: 0.908
AEB1 [6]: 0.293
AEB2 [6]: 0.288
Ave AEB [6]: 0.291
Signal to Background [6]: 140
AEB1 [7]: 0.282
AEB2 [7]: 0.309
Ave AEB [7]: 0.296
Signal to Background [7]: 142
AEB1 [8]: 0.0038
AEB2 [8]: 0.004
Ave AEB [8]: 0.0039
Signal to Background [8]: 1.88
AEB1 [9]: 0.0085
AEB2 [9]: 0.0124
Ave AEB [9]: 0.0105
Signal to Background [9]: 5.03
AEB1 [10]: 0.132
AEB2 [10]: 0.131
Ave AEB [10]: 0.132
Signal to Background [10]: 63.2
AEB1 [11]: 0.0402
AEB2 [11]: 0.0398
Ave AEB [11]: 0.04
Signal to Background [11]: 19.2
AEB1 [12]: 0.0035
AEB2 [12]: 0.0027
Ave AEB [12]: 0.0031
Signal to Background [12]: 1.49
Substance: NB500-240 (Novus) (antibody)
